Reference: US20090074722A1, “Products and methods for treating PTP lar diseases” (MAX-PLANCK-GESELLSCHAFT ZUR, priority 1999, published 2009)

Target: T1, tyrosine phosphorylated β-catenin (Homo sapiens, UniProt P35222)
T1 construct: expressed in transfected cells; host or cells: human 293 embryonic kidney cells, transient; CMV-promoter vector; immunoprecipitated with anti-β-catenin antibody
T1 sequence (P35222 1-781): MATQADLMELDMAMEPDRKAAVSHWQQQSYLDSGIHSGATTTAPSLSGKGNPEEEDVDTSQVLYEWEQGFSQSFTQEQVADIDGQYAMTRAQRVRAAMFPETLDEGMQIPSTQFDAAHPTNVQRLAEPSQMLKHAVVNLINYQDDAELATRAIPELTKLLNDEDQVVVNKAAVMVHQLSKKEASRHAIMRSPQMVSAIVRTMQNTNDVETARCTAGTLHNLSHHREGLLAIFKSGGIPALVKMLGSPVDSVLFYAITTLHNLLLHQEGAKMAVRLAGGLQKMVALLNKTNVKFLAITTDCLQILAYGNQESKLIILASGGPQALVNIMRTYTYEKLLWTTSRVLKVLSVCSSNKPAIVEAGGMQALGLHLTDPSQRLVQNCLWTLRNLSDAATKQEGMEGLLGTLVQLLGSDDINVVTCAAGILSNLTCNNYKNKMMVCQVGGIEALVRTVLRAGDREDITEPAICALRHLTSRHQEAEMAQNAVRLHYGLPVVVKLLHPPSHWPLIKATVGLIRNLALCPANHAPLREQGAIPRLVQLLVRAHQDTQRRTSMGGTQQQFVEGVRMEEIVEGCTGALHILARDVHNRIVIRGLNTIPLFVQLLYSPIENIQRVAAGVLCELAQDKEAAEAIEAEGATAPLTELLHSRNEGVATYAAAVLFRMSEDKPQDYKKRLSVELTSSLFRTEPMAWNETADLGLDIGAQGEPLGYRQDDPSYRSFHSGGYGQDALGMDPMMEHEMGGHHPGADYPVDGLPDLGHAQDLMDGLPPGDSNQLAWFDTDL
Experiment: In vitro dephosphorylation assay
Assay type: biochemical
Conditions: 200 ng GST fusion protein, 25° C.; within the first five minutes; anti-phosphotyrosine Western blot
Protocol: After 24 h of serum starvation, the cells were stimulated with pervanadate before lysis. β-catenin was subsequently immunoprecipitated with an anti-β-catenin antibody, and precipitates were incubated for the indicated time intervals with GST-PTP LAR cytoplasmic fusion protein (left), GST-PTP LAR PTP D1 C1522S-mutant (middle) or GST-PTP LAR PTP D2 C1813S-mutant (right). Reactions were terminated after the indicated periods of time, and proteins were separated by SDS-PAGE. Tyrosine phosphorylation levels of […] were analyzed by Western blotting with an anti-phosphotyrosine antibody (top). […] Arrows indicate the proteins of interest.
In Vitro Dephosphorylation Assay—β-catenin was transiently overexpressed in human 293 embryonic kidney cells. Cells were serum-starved, treated with pervanadate ([…]/0.1 mM Na-orthovanadate) for 10 minutes and lysed. Immunoprecipitations were performed as described above except that HNTG without pyrophosphate, ammonium-molybdate, and Na-orthovanadate was used. PTP activity towards tyrosine phosphorylated β-catenin was assayed in 200 μL reactions at 25° C. containing 25 mM HEPES, pH 7.5, 5 mM EDTA, 10 mM DTT, and 1 mg/mL BSA with 200 ng of GST-hPTP LAR cytoplasmic, GST-hPTP LAR D1 C1522S, or GST-hPTP LAR D2 C1813S added. Reactions were stopped by washing with HNTG and subsequently separated by SDS-PAGE. The tyrosine phosphorylation status was analyzed by Western blotting using anti-phosphotyrosine antibody.
The association of β-catenin and plakoglobin with PTP LAR prompted the investigation of whether these proteins could represent actual substrates for PTP LAR. […] After different time intervals, the reactions were terminated and analyzed with an anti-phosphotyrosine specific antibody.

B1: GST-PTP LAR cytoplasmic: GST fusion protein comprising the entire cytoplasmic domain (amino acids 1259-1881) of human PTP LAR (protein)
chain: PEMLWVTGPVLAVILIILIVIAILLFKRKRTHSPSSKDEQSIGLKDSLLAHSSDPVEMRRLNYQTPGMRDHPPIPITDLADNIERLKANDGLKFSQEYESIDPGQQFTWENSNLEVNKPKNRYANVIAYDHSRVILTSIDGVPGSDYINANYIDGYRKQNAYIATQGPLPETMGDFWRMVWEQRTATVVMMTRLEEKSRVKCDQYWPARGTETCGLIQVTLLDTVELATYTVRTFALHKSGSSEKRELRQFQFMAWPDHGVPEYPTPILAFLRRVKACNPLDAGPMVVHCSAGVGRTGCFIVIDAMLERMKHEKTVDIYGHVTCMRSQRNYMVQTEDQYVFIHEALLEAATCGHTEVPARNLYAHIQKLGQVPPGESVTAMELEFKLLASSKAHTSRFISANLPCNKFKNRLVNIMPYELTRVCLQPIRGVEGSDYINASFLDGYRQQKAYIATQGPLAESTEDFWRMLWEHNSTIIVMLTKLREMGREKCHQYWPAERSARYQYFVVDPMAEYNMPQYILREFKVTDARDGQSRTIRQFQFTDWPEQGVPKTGEGFIDFIGQVHKTKEQFGQDGPITVHCSAGVGRTGVFITLSIVLERMRYEGVVDMFQTVKTLRTQRPAM
- tyrosine phosphorylation signal of β-catenin: significant reduction in the tyrosine phosphorylation signal
